Measured values as given in publication PMC2766422.
Read-outs that look alike come from different tables or passages of the source.

Tests used:
PTB1 [1] = target: T1, PTB1 (human, UniProt P26599-1 1-531); assay: EMSA
PTB1 [2] = target: T1, PTB1; assay: EMSA; remark: listed apart in the source
PTB1:34 (RRM3-RRM4) [3] = target: T2, PTB1:34 (RRM3-RRM4) (human, UniProt P26599-1 334-531); assay: EMSA
PTB1 [4] = target: T1, PTB1; assay: EMSA; remark: listed apart in the source
PTB1:12 (RRM1-RRM2) [5] = target: T3, PTB1:12 (RRM1-RRM2) (human, UniProt P26599-1 1-301); assay: EMSA
PTB1:34 (RRM3-RRM4) [6] = target: T2, PTB1:34 (RRM3-RRM4); assay: EMSA; remark: listed apart in the source
PTB1/W1 = PTB1/W1 (human, UniProt P26599-1 1-531, F98W); assay: EMSA
PTB1/W3 [7] = target: T4, PTB1/W3 (human, UniProt P26599-1 1-531, F371W); assay: EMSA
PTB1/W4 [8] = target: T5, PTB1/W4 (human, UniProt P26599-1 1-531, F487W); assay: EMSA
PTB1:12 (RRM1-RRM2) [9] = target: T3, PTB1:12 (RRM1-RRM2); assay: EMSA; remark: listed apart in the source
PTB1:34 (RRM3-RRM4) [10] = target: T2, PTB1:34 (RRM3-RRM4); assay: EMSA; remark: listed apart in the source
PTB1 [11] = target: T1, PTB1; assay: EMSA; remark: listed apart in the source
PTB1 [12] = target: T1, PTB1; assay: EMSA; remark: listed apart in the source
PTB1/W4 [13] = target: T5, PTB1/W4; assay: Trp fluorescence quenching
PTB1:12 (RRM1-RRM2) [14] = target: T3, PTB1:12 (RRM1-RRM2); assay: EMSA; remark: listed apart in the source
PTB1 [15] = target: T1, PTB1; assay: EMSA; remark: listed apart in the source
PTB1 [16] = target: T1, PTB1; assay: filter binding
PTB1/W3 [17] = target: T4, PTB1/W3; assay: Trp fluorescence quenching

## GGAUCCUUCUCUCUGCUUCUCUCUCGCUGGCCCUUAGGAGG (structured_RNA) [c-src 5' SL (39-mer)]
PTB1 [1]
  Kd: 45 ± 2 nM

B1: c-src 3' end RNA (structured_RNA)
RNA: GGGAUCGCUUCGCUGAGGCUGGGGGCUGCUCUCUGCAUGUGCUUCCUCCACCGCCCCUGUGUGUUUCCAGCUCUCUCCCCGUCCCUUUAGCUUACCCUGCAUCCCACCUGUAUGAGCCGUACCC
PTB1 [2]
  binding result: binds
PTB1:34 (RRM3-RRM4) [3]
  binding result: binds

## GGGACUACGCAAUUCUCUUUUCUGUCUACAAAUCCAAAG (ssRNA) [GABA RNA11]
PTB1 [4]
  Kd: 15 ± 2 nM
PTB1:12 (RRM1-RRM2) [5]
  binding result: no binding
PTB1:34 (RRM3-RRM4) [6]
  Kd: 50 ± 3 nM
PTB1/W1
  binding signal: ~2 fold lower affinity than PTB1
PTB1/W3 [7]
  binding signal: ~2 fold lower affinity than PTB1
PTB1/W4 [8]
  binding signal: ~2 fold lower affinity than PTB1

## GGGAUCGGUGCCAUCGAUGUCAGGUGUGUACCCCUUAGGAGG (structured_RNA) [c-src exon N1 RNA]
PTB1:12 (RRM1-RRM2) [9]
  binding result: no binding
PTB1:34 (RRM3-RRM4) [10]
  binding result: no binding
PTB1 [11]
  binding result: no binding

## GGGUCACGGCUAGCUGUGAAAGGUCCGUGAG (structured_RNA) [HCV X SL2]
PTB1 [11]
  binding result: no binding

B2: c-src 5' SL + N1 (78-mer, RNA78) (structured_RNA)
RNA: GGCAACCCUCUCCUUCUCUCUGCUUCUCUCUCGCUGGCCCUUAGGAGGAAGGUGCCAUCGAUGUCAGGUGUGUACCGAGG
PTB1 [12]
  Kd: 80 ± 2 nM

## GGAGACUUGGUGGCUCCAUCUUAGCCCUA (structured_RNA) [HCV X SL3]
PTB1/W4 [13]
  binding result: binds
PTB1:12 (RRM1-RRM2) [14]
  Kd: 1600 ± 600 nM
PTB1 [15]
  Kd: 285 ± 120 nM
PTB1 [16]
  Kd: 410 ± 30 nM
PTB1/W3 [17]
  binding result: binds

## GGGCUUCUUCGGAUGUUUUCCUUCAAG (structured_RNA) [GABAA gamma2 exon 4 RNA]
PTB1:12 (RRM1-RRM2) [9]
  binding result: no binding
PTB1:34 (RRM3-RRM4) [10]
  binding result: no binding
PTB1 [11]
  binding result: no binding
